{"source": "patent US20230265211A1", "about": "(published 2023)", "key": {"[1]": {"target": "T1, recombinant human PS (rhPS) (human, UniProt P07225 42-676)", "T1 sequence (looked up)": "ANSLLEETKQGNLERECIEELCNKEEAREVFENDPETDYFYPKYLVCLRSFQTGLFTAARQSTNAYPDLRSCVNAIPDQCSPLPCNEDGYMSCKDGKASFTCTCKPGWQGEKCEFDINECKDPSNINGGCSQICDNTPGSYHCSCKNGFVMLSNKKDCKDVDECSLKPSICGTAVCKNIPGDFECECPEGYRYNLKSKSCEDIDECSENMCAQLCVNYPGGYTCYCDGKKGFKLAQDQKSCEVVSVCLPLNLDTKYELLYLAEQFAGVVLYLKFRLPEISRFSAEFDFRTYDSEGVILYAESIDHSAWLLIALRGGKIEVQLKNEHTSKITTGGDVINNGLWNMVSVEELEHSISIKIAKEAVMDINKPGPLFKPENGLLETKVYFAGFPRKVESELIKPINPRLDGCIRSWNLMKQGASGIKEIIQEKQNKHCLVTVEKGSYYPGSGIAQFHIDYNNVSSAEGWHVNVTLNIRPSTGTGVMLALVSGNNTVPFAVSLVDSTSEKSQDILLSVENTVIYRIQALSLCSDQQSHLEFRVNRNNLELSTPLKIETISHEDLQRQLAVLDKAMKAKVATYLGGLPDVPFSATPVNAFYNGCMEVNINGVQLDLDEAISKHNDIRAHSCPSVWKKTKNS", "test": "cell-based or functional assay"}, "[2]": {"target": "T1, recombinant human PS (rhPS)", "test": "ratio of ELISA-derived KD values, reference PS003", "protocol": "(§1) To further compare the ability of PS003 and PS003biv to bind to PS, the affinity of PS003 and PS003biv for rhPS was estimated as described (Beatty et al. J Immunol Methods 1987), by obtaining binding curves on rhPS immobilized at increasing concentrations (0.6, 1.25, 2.5 and 5 μg/mL in TBS containing 5 mM CaCl₂) in three individual experiments done in simplicate. For each nanobody, the dissociation constant (KD) was determined by using a formula based on the Law of Mass Action."}, "[3]": {"target": "T2, recombinant murine PS (rmPS) (murine, UniProt Q08761 42-675)", "T2 construct": "also called recombinant murine protein S", "T2 sequence (looked up)": "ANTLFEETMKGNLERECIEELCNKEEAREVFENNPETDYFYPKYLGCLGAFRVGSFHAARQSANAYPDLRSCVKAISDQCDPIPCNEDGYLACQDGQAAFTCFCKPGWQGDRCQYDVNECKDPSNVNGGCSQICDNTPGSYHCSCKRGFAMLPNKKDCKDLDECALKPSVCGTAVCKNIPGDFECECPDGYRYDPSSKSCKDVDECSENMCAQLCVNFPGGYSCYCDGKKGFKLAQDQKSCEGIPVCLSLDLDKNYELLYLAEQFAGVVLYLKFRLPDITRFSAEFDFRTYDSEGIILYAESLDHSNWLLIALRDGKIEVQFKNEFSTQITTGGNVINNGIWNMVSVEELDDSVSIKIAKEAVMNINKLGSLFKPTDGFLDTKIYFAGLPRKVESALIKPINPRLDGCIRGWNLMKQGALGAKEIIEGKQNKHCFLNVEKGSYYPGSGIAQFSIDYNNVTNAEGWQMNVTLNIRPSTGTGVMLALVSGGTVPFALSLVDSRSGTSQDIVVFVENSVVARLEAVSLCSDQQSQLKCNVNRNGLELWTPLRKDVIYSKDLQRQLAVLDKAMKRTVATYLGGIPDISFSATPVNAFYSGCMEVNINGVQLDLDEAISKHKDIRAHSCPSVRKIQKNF", "test": "direct ELISA on immobilized rmPS (legend of FIG. 11)", "source_text": "FIG. 11: Comparison of PS003biv and PS004biv binding to immobilized recombinant murine PS in direct ELISA. PS004biv is an in-house anti-human PS nanobody generated from a monovalent nanobody (PS004) identified after a selection on rhPS immobilized onto ELISA wells. PS004biv strongly binds to rhPS in direct ELISA but, in contrast to PS003biv, its epitope is localized within the N-terminal part of PS and not within the SHBG-like domain of PS (data not shown). The binding of PS003biv and PS004biv to immobilized rmPS was analyzed by ELISA.\nAs for rhPS, recombinant murine PS (rmPS) was expressed in HEK293 cells in the presence of 10 μg/mL vitamin K1, and purified by a two-step anion-exchange chromatography, as previously described (Fernandez et al. 2009). rmPS (60 μL at 10 μg/mL in TBS containing 5 mM CaCl₂) was immobilized onto 96-well NUNC Maxisorp plates, for 16 h at 4° C. Wells were washed with 3×200 μL of washing buffer (TBS containing 5 mM CaCl₂) and 0.1% Tween-20) and wells were blocked for 1 h at room temperature with TBS containing 5 mM CaCl₂ and 5% BSA. Wells were washed with 3×200 μL of washing buffer and increasing concentrations of PS003biv and PS004biv (0-50 nM in TBS containing 5 mM CaCl₂ and 1% BSA, 50 μL/well) were incubated for 1 h at room temperature. […]"}, "[4]": {"target": "T3, recombinant human Gas6 (rhGas6) (human, UniProt Q14393 49-678, limits assumed)", "T3 sequence (looked up)": "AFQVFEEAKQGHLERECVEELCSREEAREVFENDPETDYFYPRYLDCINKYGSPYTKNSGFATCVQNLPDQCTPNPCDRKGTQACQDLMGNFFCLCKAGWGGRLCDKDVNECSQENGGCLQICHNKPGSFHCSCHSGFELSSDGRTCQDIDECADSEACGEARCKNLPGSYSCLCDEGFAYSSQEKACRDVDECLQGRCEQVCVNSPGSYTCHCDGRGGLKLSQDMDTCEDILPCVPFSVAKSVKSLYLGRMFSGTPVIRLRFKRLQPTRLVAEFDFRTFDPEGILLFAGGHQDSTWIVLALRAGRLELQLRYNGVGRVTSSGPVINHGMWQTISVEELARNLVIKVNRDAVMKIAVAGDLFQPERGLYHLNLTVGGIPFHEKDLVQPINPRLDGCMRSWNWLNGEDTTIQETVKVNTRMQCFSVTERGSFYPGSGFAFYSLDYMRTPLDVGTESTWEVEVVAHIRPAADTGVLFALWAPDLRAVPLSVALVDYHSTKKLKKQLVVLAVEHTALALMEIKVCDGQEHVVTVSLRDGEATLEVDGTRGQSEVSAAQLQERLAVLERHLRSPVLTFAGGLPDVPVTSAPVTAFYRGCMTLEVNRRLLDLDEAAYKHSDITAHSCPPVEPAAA", "test": "direct ELISA on immobilized rhGas6, anti-His6 detection", "protocol": "FIG. 7: Epitope mapping of PS003biv and specificity of PS003biv for PS. Recombinant human PS (rhPS), a recombinant form of the PS SHBG-like region alone (rSHBG)), recombinant human Gas6 (rhGas6), or BSA (60 μL at 10 μg/mL in TBS containing 5 mM CaCl₂) were immobilized onto ELISA wells, and the binding of PS003biv (0.5 nM in TBS-0.1% Tween-5 mM CaCl₂)) was analyzed using a peroxidase-conjugated polyclonal anti-His6 tag antibody. The results are expressed as the percentage of the Abs_{450 nm} obtained on rhPS. Three individual experiments were done in simplicate.\nEpitope mapping of PS003biv and specificity of PS003biv for PS rhPS, a recombinant form of the PS SHBG-like region alone (rSHBG) (Saposnik et al. 2003), recombinant human Gas6 (rhGas6), or BSA (60 μL at 10 μg/mL in 50 mM Tris, 150 mM NaCl, pH 7.4 (TBS) containing 5 mM CaCl₂) were immobilized onto 96-well NUNC Maxisorp plates, for 16 h at 4° C. Wells were washed with 3×200 μL of washing buffer (TBS containing 5 mM CaCl₂ and 0.1% Tween-20) and wells were blocked for 1 h at room temperature with TBS containing 5 mM CaCl₂ and 5% BSA. Wells were washed with 3×200 μL of washing buffer and 0.5 nM PS003biv (in TBS containing 5 mM CaCl₂, 0.1% Tween-20 and 2% BSA, 50 μL/well) were incubated for 1 h at room temperature. […] The results are expressed as the percentage of the Abs_{450 nm} obtained on rhPS. […]"}, "[5]": {"target": "T1, recombinant human PS (rhPS)", "test": "ELISA on rhPS immobilized at 0.6, 1.25, 2.5 and 5 µg/mL, method of Beatty et al. 1987", "protocol": "as §1, with “FIG. 6: Comparison of PS003 and PS003biv binding to immobilized PS in direct ELISA. rhPS (60 μL at 2.5 μg/mL in TBS containing 5 mM CaCl₂)) was immobilized onto ELISA wells, and the binding of PS003 and PS003biv (0-200 nM) was analyzed with a peroxidase-conjugated polyclonal anti-His6 tag antibody. Three individual experiments were done in simplicate, and the results are expressed as percentage of maximal binding for each nanobody. […] To” for “To”, “obtaining similar” for “obtaining”\nas §1, with “For each nanobody, the dissociation constant (KD) was determined by using a formula based on the Law of Mass Action.” left out"}, "[6]": {"target": "T3, recombinant human Gas6 (rhGas6)", "test": "direct ELISA on immobilized protein, anti-HA detection", "protocol": "Vitamin K-dependent Gas6 is highly homologous to PS (47% overall homology) and, in contrast to other vitamin K-dependent proteins, also contains a SHBG-like domain. To further confirm the specificity of PS003 to PS, rhPS and rh Gas6 (60 μL, at 10 μg/mL in TBS containing 5 mM CaCl₂) were immobilized onto 96-well NUNC Maxisorp plates for 16 h at 4° C. Wells were washed with 3×200 μL of washing buffer (TBS containing 5 mM CaCl₂ and 0.1% Tween-20) and wells were blocked for 1 h at room temperature in TBS containing 5 mM CaCl₂ and 5% BSA. Wells were washed with 3×200 μL of washing buffer and increasing concentrations of PS003 (0-200 nM in TBS containing 5 mM CaCl₂ and 1% BSA, 50 μL/well) was incubated for 1 h at room temperature. Wells were washed with 3×200 μL of washing buffer, and a peroxidase-conjugated polyclonal anti-HA tag antibody (Abcam, 1 μg/mL in TBS containing 5 mM CaCl₂ and 1% BSA, 50 μL/well) was incubated for 1 h at room temperature. Wells were washed with 3×200 μL of washing buffer and 50 μL of TMB was added. Reactions were stopped by the addition of 50 μL of 2M H₂SO₄."}}, "data": [{"binder": "PS003biv (VHH, also called bivalent PS003; not shown: N-terminal His6-tag from the pET28 format; C-terminal haemagglutinin (HA)-tag) QVQLQESGGGLVQAGGSLRLSCAASGRTFSSYAMGWVRQAPGKEREFVAAISYNGGRTNYADSVKGRFTISRDNAKNTGYLQMNSLKPEDTAVYYCAANPRMWGSVDFRSWGQGTQVTVSSGGGSGGGSGGGSGGGSQVQLQESGGGLVQAGGSLRLSCAASGRTFSSYAMGWVRQAPGKEREFVAAISYNGGRTNYADSVKGRFTISRDNAKNTGYLQMNSLKPEDTAVYYCAANPRMWGSVDFRSWGQGTQVTVSS", "values": [{"measurement": "clotting times in APTT-based APC-cofactor activity plasma clotting assay (STACLOT PS); 6 nM rhPS, 2 µM nanobody", "setting": "[1]", "value": 3.6, "unit": "fold"}, {"measurement": "fold higher affinity than PS003", "setting": "[2]", "value": 1.9, "unit": "fold"}, {"measurement": "binding result", "setting": "[3]", "value": "binds"}, {"measurement": "binding result", "setting": "[4]", "value": "no binding (tested: 0.5 nM)"}, {"measurement": "Kd", "setting": "[5]", "value": 13.8, "unit": "nM"}]}, {"binder": "PS003 (VHH, Llama VHH selected by phage display on rhPS; Purified form expressed from pET28 in E. coli with N-terminal His6-tag and C-terminal HA-tag; also called PS003 nanobody; monovalent PS003; not shown: N-terminal His6-tag from the pET28 format; C-terminal haemagglutinin (HA)-tag) VHH: QVQLQESGGGLVQAGGSLRLSCAASGRTFSSYAMGWVRQAPGKEREFVAAISYNGGRTNYADSVKGRFTISRDNAKNTGYLQMNSLKPEDTAVYYCAANPRMWGSVDFRSWGQGTQVTVSS", "values": [{"measurement": "clotting times in APTT-based APC-cofactor activity plasma clotting assay (STACLOT PS); 6 nM rhPS, 2 µM nanobody", "setting": "[1]", "value": 2.8, "unit": "fold"}, {"measurement": "binding result", "setting": "[6]", "value": "no binding (tested: 20 nM)"}, {"measurement": "Kd", "setting": "[5]", "value": 26.8, "unit": "nM"}]}]}
